Assays:
[1] = molecular target: RyR2 channels from failing hearts; test: cell-based or functional assay
[2] = molecular target: RyR2 channels from failing hearts; test: co-immunoprecipitation, immunoblot densitometry (FIG. 4B)
[3] = system: type 2 ryanodine receptor (RyR2), native channel from cardiac sarcoplasmic reticulum

open probability (Po) at 50 nM cis (cytosolic) Ca^2+ [1] | decrease in the amount of FKBP12.6 bound (failing against normal hearts) [2] [%] | Substance | phosphorylation of RyR2 on addition of cAMP without exogenous PKA [3]
0.24 | 60 | FK-506 binding protein FKBP12.6, native from cardiac SR (from UniProt P68106 1-108) | –
– | – | protein kinase A (PKA) catalytic subunit, endogenous in cardiac SR | Addition of phosphorylation buffer including cAMP without exogenous PKA also resulted in phosphorylation of RyR2 that was inhibited by PKI
